21 substances from patent US12042530B2, “Target peptides for immunotherapy and diagnostics” (University of Virginia Patent Foundation, priority 2012, dated 2024) can be followed below.

Non-standard residues stand in square brackets, D forms with d. No end group written: not given here. pT = C[C@@H](OP(=O)(O)O)[C@H](N)C(=O)O; pS = N[C@@H](COP(=O)(O)O)C(=O)O

The target in assay [1] is T1, HLA-B*0702 (HLA-B7) peptide complexes (Homo sapiens, UniProt P01889).
T1 construct: endogenous in cells; host or cells: JY B-lymphoblastoid line; primary ALL, CLL, HCL, AML samples; bone marrow; healthy B and T cells
Description: HLA-B*0702 phosphopeptides associated with leukemia samples (isolation of HLA-associated peptides). As to conditions: for Copies/cell class, ALL1: acute lymphoblastic leukemia sample ALL1; for Copies/cell class, B Cell: healthy B cells; for Copies/cell class, T Cell: healthy T cells; for Copies/cell class, HCL1: hairy cell leukemia sample HCL1; for Copies/cell class, BM: healthy bone marrow. From the text: To identify naturally processed tumor-associated phosphopeptides, HLA-A*0201 (HLA-A2) and HLA-B*0702 (HLA-B7) peptide complexes from four (4) chronic lymphocytic leukemia (CLL) tumor samples, a mantle cell lymphoma sample (MCL), one acute lymphoblastic leukemia (ALL), and an acute myeloid leukemia (AML) sample, in addition to healthy splenic T and B-cells and the cultured lymphoblastoid cell line JY were isolated. These efforts yielded 10 HLA-A2-restricted and 86 HLA-B7-restricted phosphopeptide antigens (see Tables 6 and 7).
All cell lines were grown at 37° C. with 5% CO2 in growth medium consisting of RPMI 1640 supplemented with 10% FCS and two mM L-glutamine. Blood or leukapheresis samples were taken from patients with high-burden leukemia in heparin. Tumor cells were recovered by layering the blood over density gradient (Ficoll) and collecting the tumor layer following centrifugation. The tumor was washed in tris-buffered saline (TBS). The purity of the tumor was assessed using flow cytometry and was >98% pure in all cases. For healthy T and B-cell populations, a normal spleen sample processed and tonsil sample was collected and lymphocytes released through mechanical disruption. Mononuclear cells were isolated using a density gradient and 10^9 T cells isolated using anti-CD19 or anti-CD3 microbeads (Miltenyi Biotec Inc., Auburn, California, United States of America) with purity >98% were obtained. Bone marrow sample was obtained from an elective orthopedic procedure and red cell-depleted using hypotonic lysis. This sample was not processed further.
Class I MHC molecules were immunoaffinity purified from the JY cell line or from primary tumor samples, and their associated peptides were extracted as previously described in Zarling et al., 2006. Approximately 1.2-14×10^9 cells were lysed in a solution containing 20 mM Tris-HCl (pH 8.0), 150 mM NaCl, 1% CHAPS, one mM PMSF, five μg/mL aprotinin, 10 μg/mL leupeptin, 10 μg/mL pepstatin A, 1 μg/ml calyculin A, and phosphatase inhibitor (cocktails I and II; Sigma-Aldrich). The mixture was subjected to centrifugation and the resulting supernatant was passed over protein A sepharose pre-loaded with the HLA-A2-specific antibody BB7.2 or HLA-B7-specific antibody MEL Peptides were eluted from the purified class I MHC molecules with 10% acetic acid.

The target of assay [2] is T2, HLA-B*0702 (Homo sapiens, UniProt P01889).
T2 construct: endogenous in cells; host or cells: melanoma and/or leukemia cells
Description: Phosphopeptides presented in association with class I molecules (HLA-B*0702) on cancer cells: melanoma and/or leukemia. Also on record: key: Melanoma (M); Leukemia (L); L/M: Melanoma (M) and/or Leukemia (L). As to conditions: cancer type on which the HLA-B*0702 phosphopeptide is presented.

Regarding “274 (FSI[pS]PVRL; listed as Homo sapiens) [compound 274]”, in assay [1], the “Copies/cell class, ALL1” value is listed as 4 (4 indicates >25 copies per cell); the “Copies/cell class, B Cell” value was 2 (2 indicates 1-5 copies/cell); the “Copies/cell class, T Cell” value is reported as 2 (2 indicates 1-5 copies/cell). Further, the L/M result in assay [2] is reported as “L”.
As to “272 (FRR[pS]PTKSSL; listed as Homo sapiens) [compound 272]”, in assay [1], the “Copies/cell class, AML1” value is reported as 2 (2 indicates 1-5 copies/cell). In addition, the L/M result in assay [2] was “L”.
Consider “343 (RPS[pS]LPDL; listed as Homo sapiens) [compound 343]”, for which, in assay [1], the “Copies/cell class, AML1” value is on record as 2 (2 indicates 1-5 copies/cell); the “Copies/cell class, CLL2” value was 2 (2 indicates 1-5 copies/cell); the “Copies/cell class, JY” value is given as 3 (3 indicates 6-25 copies per cell); the “Copies/cell class, ALL1” value is 4 (4 indicates >25 copies per cell). In assay [1], the “Copies/cell class, HCL1” value is given as 1 (1 indicates <1 copy/cell); the “Copies/cell class, B Cell” value was 3 (3 indicates 6-25 copies per cell); the “Copies/cell class, T Cell” value was 4 (4 indicates >25 copies per cell). Besides, in assay [2], the L/M result is given as “L”.
On to “366 (RVR[pS]PTRSP; listed as Homo sapiens) [compound 366]”, for which, in assay [1], the “Copies/cell class, AML1” value is recorded as 2 (2 indicates 1-5 copies/cell). Further, in assay [2], the L/M entry was “L”.
For “273 (FRR[pS]PTKSSLDY; listed as Homo sapiens) [compound 273]”, the “Copies/cell class, AML1” value in assay [1] is listed as 4 (4 indicates >25 copies per cell). In addition, the L/M result in assay [2] is listed as “L”.
On the same counts, the results for “334 (RPR[pS]PGSNSKV; listed as Homo sapiens) [compound 334]” are 1 (1 indicates <1 copy/cell) and “L”.
On to “324 (RPQRAT[pS]NVF; listed as Homo sapiens) [compound 324]”, for which, in assay [1], the “Copies/cell class, AML1” value was 2 (2 indicates 1-5 copies/cell); the “Copies/cell class, B Cell” value was 2 (2 indicates 1-5 copies/cell); the “Copies/cell class, T Cell” value is 3 (3 indicates 6-25 copies per cell). The L/M entry in assay [2] is given as “L”.
As for “359 (RSG[pS]LERKV; listed as Homo sapiens) [compound 359]”, the “Copies/cell class, ALL1” value in assay [1] is reported as 1 (1 indicates <1 copy/cell). Also, the L/M result in assay [2] is “L”.
With “307 (RPA[pS]AGAML; listed as Homo sapiens) [compound 307]”, in assay [1], the “Copies/cell class, AML1” value is reported as 1 (1 indicates <1 copy/cell); the “Copies/cell class, CLL2” value is listed as 2 (2 indicates 1-5 copies/cell); the “Copies/cell class, JY” value was 4 (4 indicates >25 copies per cell); the “Copies/cell class, ALL1” value is on record as 4 (4 indicates >25 copies per cell). In addition, in assay [1], the “Copies/cell class, HCL1” value is recorded as 2 (2 indicates 1-5 copies/cell); the “Copies/cell class, B Cell” value is listed as 1 (1 indicates <1 copy/cell); the “Copies/cell class, T Cell” value is 3 (3 indicates 6-25 copies per cell); the “Copies/cell class, BM” value is reported as 1 (1 indicates <1 copy/cell). Also, in assay [2], the L/M entry is “L”.
For the substance “283 (KPA[pS]PKFIVTL; listed as Homo sapiens) [compound 283]”, in assay [1], the “Copies/cell class, AML1” value is recorded as 2 (2 indicates 1-5 copies/cell). In assay [2], the L/M entry is on record as “L”.
As to “296 (KPY[pS]PLASL; listed as Homo sapiens) [compound 296]”, in assay [1], the “Copies/cell class, CLL2” value is recorded as 1 (1 indicates <1 copy/cell); the “Copies/cell class, JY” value was 4 (4 indicates >25 copies per cell); the “Copies/cell class, ALL1” value is 2 (2 indicates 1-5 copies/cell); the “Copies/cell class, HCL1” value is on record as 2 (2 indicates 1-5 copies/cell). In assay [1], the “Copies/cell class, B Cell” value is on record as 2 (2 indicates 1-5 copies/cell) and the “Copies/cell class, T Cell” value is listed as 3 (3 indicates 6-25 copies per cell). In assay [2], the L/M entry was “L”.
“305 (RAP[pS]PSSRM; listed as Homo sapiens) [compound 305]”: in assay [1], the “Copies/cell class, ALL1” value is given as 4 (4 indicates >25 copies per cell) and the “Copies/cell class, B Cell” value is on record as 1 (1 indicates <1 copy/cell). Also, the L/M result in assay [2] is on record as “L”.
On to “374 (SPRR[pS]RSISL; listed as Homo sapiens) [compound 374]”, for which the “Copies/cell class, AML1” value in assay [1] was 4 (4 indicates >25 copies per cell). The L/M entry in assay [2] is recorded as “L/M”.
Regarding “371 (SPK[pS]PGLKA; listed as Homo sapiens) [compound 371]”, in assay [1], the “Copies/cell class, AML1” value is reported as 1 (1 indicates <1 copy/cell); the “Copies/cell class, CLL2” value is given as 3 (3 indicates 6-25 copies per cell); the “Copies/cell class, CLL4” value is given as 3 (3 indicates 6-25 copies per cell); the “Copies/cell class, JY” value was 4 (4 indicates >25 copies per cell). Further, in assay [1], the “Copies/cell class, ALL1” value is recorded as 1 (1 indicates <1 copy/cell); the “Copies/cell class, HCL1” value was 2 (2 indicates 1-5 copies/cell); the “Copies/cell class, T Cell” value was 1 (1 indicates <1 copy/cell); the “Copies/cell class, BM” value is listed as 1 (1 indicates <1 copy/cell). Besides, the L/M result in assay [2] was “L”.
Consider “382 (SPS[pS]PSVRRQL; listed as Homo sapiens) [compound 382]”, for which, in assay [1], the “Copies/cell class, AML1” value is reported as 2 (2 indicates 1-5 copies/cell); the “Copies/cell class, B Cell” value is on record as 2 (2 indicates 1-5 copies/cell); the “Copies/cell class, T Cell” value was 2 (2 indicates 1-5 copies/cell). Also, in assay [2], the L/M entry was “L”.
Turning to “337 (RPR[pS]PSPIS; listed as Homo sapiens) [compound 337]”, the “Copies/cell class, AML1” value in assay [1] is 2 (2 indicates 1-5 copies/cell). In addition, the L/M result in assay [2] is reported as “L”.
With “302 (QPR[pS]PGPDYSL; listed as Homo sapiens) [compound 302]”, in assay [1], the “Copies/cell class, AML1” value was 3 (3 indicates 6-25 copies per cell). The L/M result in assay [2] is “L”.
For “336 (RPR[pS]PRQNSI; listed as Homo sapiens) [compound 336]”, in assay [1], the “Copies/cell class, AML1” value is 2 (2 indicates 1-5 copies/cell). Also, in assay [2], the L/M entry is given as “L”.
Take “291 (KPR[pS]PDHVL; listed as Homo sapiens) [compound 291]”: in assay [1], the “Copies/cell class, CLL2” value was 1 (1 indicates <1 copy/cell); the “Copies/cell class, CLL4” value is on record as 1 (1 indicates <1 copy/cell); the “Copies/cell class, ALL1” value was 1 (1 indicates <1 copy/cell); the “Copies/cell class, HCL1” value was 1 (1 indicates <1 copy/cell). For the same substance, the L/M result in assay [2] is given as “L”.
On to “322 (RPP[pS]SEFLDL; listed as Homo sapiens) [compound 322]”, for which, in assay [1], the “Copies/cell class, CLL2” value is given as 1 (1 indicates <1 copy/cell); the “Copies/cell class, ALL1” value was 3 (3 indicates 6-25 copies per cell); the “Copies/cell class, HCL1” value is on record as 1 (1 indicates <1 copy/cell); the “Copies/cell class, B Cell” value is recorded as 2 (2 indicates 1-5 copies/cell). Further, the “Copies/cell class, T Cell” value in assay [1] is listed as 2 (2 indicates 1-5 copies/cell). Moreover, the L/M entry in assay [2] was “L”.
For the substance “349 (RPV[pT]PVSDL; listed as Homo sapiens) [compound 349]”, in assay [1], the “Copies/cell class, CLL2” value was 2 (2 indicates 1-5 copies/cell); the “Copies/cell class, JY” value is listed as 4 (4 indicates >25 copies per cell); the “Copies/cell class, ALL1” value was 4 (4 indicates >25 copies per cell); the “Copies/cell class, HCL1” value is 1 (1 indicates <1 copy/cell). Besides, in assay [1], the “Copies/cell class, B Cell” value is on record as 2 (2 indicates 1-5 copies/cell) and the “Copies/cell class, T Cell” value was 2 (2 indicates 1-5 copies/cell). Moreover, the L/M result in assay [2] is “L”.
